Measurements published in paper PMC4506093.

Assays:
[1] = biological target: highly purified 26S proteasome, extracted from transformed HEK cells
[2] = biological target: highly purified 26S proteasome, extracted from transformed HEK cells; remark: listed apart in the source

“recombinant IDE expressed in Spodoptera frugiperda (from UniProt P35559 1-1019) (enzyme)” was tested, and the inhibition of the caspase-like activity (50 micromol/L Z-LLE-AMC, after subtracting IDE's own cleavage) of 1 nanomol/L 26S proteasome by IDE up to 50 nanomol/L at 37°C; value at 50 nanomol/L IDE [1] was 60%, the inhibition of the chymotryptic-like activity (50 micromol/L Suc-LLVY-AMC) of 1 nanomol/L 26S proteasome by IDE from 1 nanomol/L to 50 nanomol/L at 37°C; value at 50 nanomol/L IDE [2] was 55% and the inhibition of the tryptic-like activity (50 micromol/L Boc-LLR-AMC) of 1 nanomol/L 26S proteasome by IDE from 1 nanomol/L to 50 nanomol/L at 37°C; value at 50 nanomol/L IDE [2] was 65 to 70%.
